In publication PMC6698660:

Target: His-tagged Sinorhizobium meliloti DnaN (β-sliding clamp) (Sinorhizobium meliloti)
Assay: BLI

Substance | kon [M⁻¹ s⁻¹]
MF-IEP104 (MF-IEP carrying substitution L104A) (natural protein) | 44000
MBP-Flag-IEP fusion protein (MF-IEP) of the RmInt1 intron, made in E. coli (natural protein) | 82000
